# Results: IntAct's records for PubMed 15447654
# B1: Adagio protein 1 (Arabidopsis thaliana (Mouse-ear cress)), Q94BT6 (parent)
# chain: MEWDSGSDLSADDASSLADDEEGGLFPGGGPIPYPVGNLLHTAPCGFVVTDAVEPDQPIIYVNTVFEMVTGYRAEEVLGGNCRFLQCRGPFAKRRHPLVDSMVVSEIRKCIDEGIEFQGELLNFRKDGSPLMNRLRLTPIYGDDDTITHIIGIQFFIETDIDLGPVLGSSTKEKSIDGIYSALAAGERNVSRGMCGLFQLSDEVVSMKILSRLTPRDVASVSSVCRRLYVLTKNEDLWRRVCQNAWGSETTRVLETVPGAKRLGWGRLARELTTLEAAAWRKLSVGGSVEPSRCNFSACAVGNRVVLFGGEGVNMQPMNDTFVLDLNSDYPEWQHVKVSSPPPGRWGHTLTCVNGSNLVVFGGCGQQGLLNDVFVLNLDAKPPTWREISGLAPPLPRSWHSSCTLDGTKLIVSGGCADSGVLLSDTFLLDLSIEKPVWREIPAAWTPPSRLGHTLSVYGGRKILMFGGLAKSGPLKFRSSDVFTMDLSEEEPCWRCVTGSGMPGAGNPGGVAPPPRLDHVAVNLPGGRILIFGGSVAGLHSASQLYLLDPTEDKPTWRILNIPGRPPRFAWGHGTCVVGGTRAIVLGGQTGEEWMLSELHELSLASYLT
# Variants of: B1
# Settings: with skp1a_arath SKP1A
row,effect of a mutation on the interaction,Variant
1,decreasing interaction,L213A
2,decreasing interaction,L200A
